From patent US11473073B2, “Aminopeptidases for protein hydrolyzates” (DUPONT NUTRITION BIOSCIENCES APS, priority 2015, dated 2022)

Assays:
Assay type in all cases: biochemical
gluten = assay: Degree of hydrolysis of pre-hydrolysed gluten; conditions: 50° C., 20 hr
Method: (§1) The degree of hydrolyses (DH) describes the relative amount of cleaved peptides bounds compared to an acid hydrolyses of the same amount of protein conducted e.g. in 6 M HCL at ˜120° C. for ˜24 h. The higher the DH can therefore be applied to assess the efficiency of amino acid liberation of a general PepN such as a PepN 1 or a PepN 2 type. The cell free culture broth was concentrated (10 kDa cut-off, Sartorius, Göttingen, Germany) and desalted applying a disposal desalting column (PD10, GE, Munchen, Germany) as described by the manufacturer. As substrates were pre-hydrolysed 10% (w/w) Na-caseinate (DMK, Germany), whey protein isolate (WPI; Arla, Viby, Denmark), soy protein isolate (SPI; SUPRO® 760, DuPont, Brabrand, Denmark) and gluten suspensions were applied. The pre-hydrolysis was conducted with 1% (w/wprotein) of FOODPRO® Alkaline Protease, 1% (w/wprotein) FOODPRO® PNL for the Na-Caseinate, the WPI as well as the SPI suspension. All pre-hydrolyses were conducted at 55° C. for 18 h followed by an inactivation step at 95° C. for 20 min. Each applied PepN 2 has been inactivated at 95 C for 15 min as a control of the elimination of any carryover of amino acids from the culture broth to the final hydrolyses as well as for the sufficient inactivation of the applied endopeptidases. The hydrolyses were conducted in a 96-well micro titer plate format and consisted of 150 μL of the pre-hydrolyzed protein suspension combined with 50 μL of a PepN 2 stock solution as indicated in Table 1 below. The hydrolyses were conducted at 50° C. for 20 hr, subsequently, the hydrolysis were stopped by the addition of 20 μL 2 M TCA (Trichloroacetic acid, Sigma-Aldrich, Schnelldorf, Germany). The efficiency of the amino acid liberation of the PepN 2 types from Neosartorya fischeri and Aspergillus clavatus can be seen in Table 1 (B) and (A). […] For the gluten hydrolyses, an increased DH was noticed in the protein range from 0.02-0.3 mg/mL PepN 2.

[1] = test system: soy protein isolate (SPI); assay: Degree of hydrolysis of pre-hydrolysed soy protein isolate; conditions: 50° C., 20 hr
Method: as §1

[2] = test system: whey protein isolate (WPI); assay: Degree of hydrolysis of pre-hydrolysed whey protein isolate; conditions: 50° C., 20 hr
Method: as §1

[3] = test system: peptide WHWLQLKPGQPMY (SEQ ID NO:26); assay: Hydrolysis of proline containing peptide, LC-MS; conditions: peptide 1 mg/mL, aminopeptidase 1 ug/mL, CPB-Buffer, 55° C.; FIG. 5-7
Method: The peptide […] (SEQ ID NO:26) was hydrolysed with TRI03 and TRI035. The peptide (1 mg/mL) was incubated with 1 ug/mL of the aminopeptidase in 20 mM CPB-Buffer (20 mM Citric acid, 20 mM Phosphate. 20 mM Boric acid) at 55° C. Aliquots (50 μL) were stopped with 50 rel 5% TFA at the indicated time points and subjected to LC-MS analysis.
Capillary LC-MS/MS analyses were performed using an Agilent 1100 LC system (Agilent Technologies) interfaced to a LTQ Orbitrap Classic hybrid mass spectrometer (Thermo Scientific, Bremen, Germany). Samples were loaded onto a 15 cm Phenomenix Jupiter 4μ Proteo 90A, C4 analytical column. Separation was performed at a flow rate of 16 μL/min using a 10 min gradient of 0-40% Solvent B H2O/CH3CN/HCOOH (50/950/0.65 v/v/v) into the IONMAX® ion source (Thermo Scientific, San Jose). The LTQ Orbitrap Classic instrument was operated in a data-dependent MS/MS mode. The peptide masses were measured by the Orbitrap (MS scans were obtained with a resolution of 60 000 at m/z 400), and up to 2 of the most intense peptide m/z were selected and subjected to fragmentation using CID in the linear ion trap (LTQ). Dynamic exclusion was enabled with a list size of 500 masses, duration of 40 s, and an exclusion mass width of ±10 ppm relative to masses on the list.
The RAW files were accessed with the program Skyline 2.6.0.7176 (MacLean, B., et al., “Skyline: an open source document editor for creating and analyzing targeted proteomics experiments”, Bioinformatics, 2010, 26(7): p. 966-8) which uses the MS1 intensities to build chromatograms (Schilling, B., et al., “Platform-independent and label-free quantitation of proteomic data using MS1 extracted ion chromatograms in skyline: application to protein acetylation and phosphorylation”, Mol Cell Proteomics, 2012. 11(5): p. 202-14). The precursor isotopic import filter was set to a count of three, (M, M+1, and M+2) at a resolution of 60,000 and the most intense charge state was used. Peptide sequences of the substrate as well as cleavage products were typed into Skyline and intensities were calculated in each sample. […]

[4] = Product inhibition of H-Ala-pNA hydrolysis by amino acid inhibitor mix; conditions: pH 9.0, 30° C.
Method: Sigma cat # D2650). […] […] and proline were dissolved in DMSO. All other amino acids were dissolved in buffer. […] The reaction was started by adding 20 μL substrate. Only one substrate concentration was used per plate.

Na-caseinate = assay: Degree of hydrolysis of pre-hydrolysed Na-caseinate; conditions: Casein, 50° C., 20 hr
Method: as §1

[5] = inactivated enzyme at the highest conc.

B1: TRI035: fungal aminopeptidase type-2 (pepN_2), NCBI XP_001273779 from Aspergillus clavatus NRRL 1 (protein)
chain: MQTFGAFLVSFLAASGLAAANAPGGPGGHGRKLPVNPKTFPNEIRLKDLLHGSQKLEDFAYAYPERNRVFGGQAHLDTVNYLYRELKKTGYYDVYKQPQVHQWTRADQSLTLGGDSIQASTMTYSPSVNVTAPLSLVSKLGCAEGDYSADVKGKIALVSRGECSFAQKSVLSAKAGAVATIVYNNVDGSLAGTLGGATSELGPYSPIIGITLAAGQDLVARLQAAPTEVSLWIDSKVENRTTYNVIAQTKGGDPNNVVALGGHTDSVENGPGINDDGSGVISNLVVAKALTRYSVKNAVRFCFWTAEEFGLLGSNYYVDNLSPAELAKIRLYLNFDMIASPNYALMIYDGDGSAFNLTGPPGSAQIESLFENYYKSIKQGFVPTAFDGRSDYEGFILKGIPAGGVFTGAESLKTEEQARLFGGQAGVALDANYHAKGDNMTNLNHKAFLINSRATAFAVATYANNLSSIPPRNATVVKRESMKWTKREEPHTHGADTGCFASRVKE
modifications: Synthetic peptide with leader sequence
gluten; PepN 2 stock 0.02 mg/mL
  Degree of hydrolysis: 12%
gluten; PepN 2 stock 0.03 mg/mL
  Degree of hydrolysis: 14%
gluten; PepN 2 stock 0.04 mg/mL
  Degree of hydrolysis: 15%
gluten; PepN 2 stock 0.05 mg/mL
  Degree of hydrolysis: 15%
gluten; PepN 2 stock 0.1 mg/mL
  Degree of hydrolysis: 17%
gluten; PepN 2 stock 0.15 mg/mL
  Degree of hydrolysis: 18%
gluten; PepN 2 stock 0.2 mg/mL
  Degree of hydrolysis: 17%
gluten; PepN 2 stock 0.25 mg/mL
  Degree of hydrolysis: 19%
gluten; PepN 2 stock 0.3 mg/mL
  Degree of hydrolysis: 19%
gluten; PepN 2 stock 0.35 mg/mL
  Degree of hydrolysis: 22%
gluten; [5]
  Degree of hydrolysis: 4%
[1]; PepN 2 stock 0.02 mg/mL
  Degree of hydrolysis: 11%
[1]; PepN 2 stock 0.03 mg/mL
  Degree of hydrolysis: 12%
[1]; PepN 2 stock 0.04 mg/mL
  Degree of hydrolysis: 13%
[1]; PepN 2 stock 0.05 mg/mL
  Degree of hydrolysis: 14%
[1]; PepN 2 stock 0.1 mg/mL
  Degree of hydrolysis: 16%
[1]; PepN 2 stock 0.15 mg/mL
  Degree of hydrolysis: 15%
[1]; PepN 2 stock 0.2 mg/mL
  Degree of hydrolysis: 17%
[1]; PepN 2 stock 0.25 mg/mL
  Degree of hydrolysis: 21%
[1]; PepN 2 stock 0.3 mg/mL
  Degree of hydrolysis: 21%
[1]; PepN 2 stock 0.35 mg/mL
  Degree of hydrolysis: 21%
[1]; [5]
  Degree of hydrolysis: 6%
[2]; PepN 2 stock 0.02 mg/mL
  Degree of hydrolysis: 19%
[2]; PepN 2 stock 0.03 mg/mL
  Degree of hydrolysis: 20%
[2]; PepN 2 stock 0.04 mg/mL
  Degree of hydrolysis: 21%
[2]; PepN 2 stock 0.05 mg/mL
  Degree of hydrolysis: 22%
[2]; PepN 2 stock 0.1 mg/mL
  Degree of hydrolysis: 23%
[2]; PepN 2 stock 0.15 mg/mL
  Degree of hydrolysis: 27%
[2]; PepN 2 stock 0.2 mg/mL
  Degree of hydrolysis: 25%
[2]; PepN 2 stock 0.25 mg/mL
  Degree of hydrolysis: 28%
[2]; PepN 2 stock 0.3 mg/mL
  Degree of hydrolysis: 29%
[2]; PepN 2 stock 0.35 mg/mL
  Degree of hydrolysis: 29%
[2]; [5]
  Degree of hydrolysis: 8%
[3]
  hydrolysis of WHWLQLKPGQPMY to KPGQPMY and further down to QPMY: can hydrolyze
[4]
  product inhibition compared to TRI063 from A. oryzae: less inhibited by product
Na-caseinate; PepN 2 stock 0.02 mg/mL
  Degree of hydrolysis: 16%
Na-caseinate; PepN 2 stock 0.03 mg/mL
  Degree of hydrolysis: 19%
Na-caseinate; PepN 2 stock 0.04 mg/mL
  Degree of hydrolysis: 19%
Na-caseinate; PepN 2 stock 0.05 mg/mL
  Degree of hydrolysis: 20%
Na-caseinate; PepN 2 stock 0.1 mg/mL
  Degree of hydrolysis: 21%
Na-caseinate; PepN 2 stock 0.15 mg/mL
  Degree of hydrolysis: 23%
Na-caseinate; PepN 2 stock 0.2 mg/mL
  Degree of hydrolysis: 24%
Na-caseinate; PepN 2 stock 0.25 mg/mL
  Degree of hydrolysis: 24%
Na-caseinate; PepN 2 stock 0.3 mg/mL
  Degree of hydrolysis: 24%
Na-caseinate; PepN 2 stock 0.35 mg/mL
  Degree of hydrolysis: 27%
Na-caseinate; [5]
  Degree of hydrolysis: 8%
